# Bridges are numbered along the chain shown (N, C = ends). Where no end group is shown, it is not given here.
# T1: TNFR1 (Homo sapiens, UniProt P19438)
# T1 chain: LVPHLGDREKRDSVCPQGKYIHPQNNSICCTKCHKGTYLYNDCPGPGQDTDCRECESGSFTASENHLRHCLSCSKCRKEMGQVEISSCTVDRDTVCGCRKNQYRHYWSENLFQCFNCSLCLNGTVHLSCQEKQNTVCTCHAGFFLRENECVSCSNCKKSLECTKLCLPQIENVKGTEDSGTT
# B1: WP9QY (peptide)
# chain: YCWSQYLCY
# modifications: disulfide 2-8 (inferred)
# B2: L16R (α_CC8 L16R cyclic peptide) (peptide)
# chain: CTISRIAVSYQTKVNRLSC
# modifications: disulfide 1-19
# Molecular target: T1, TNFR1
# Test: ELISA
row,Binder,Kd
1,B1,1150 nM
2,B2,177 nM

# From publication PMC11547827 (2024)
